# Ends that are not written are not given here.
# T1: S. pneumoniae HtrA protease domain (PD, residues 59-285) (Streptococcus pneumoniae, UniProt A0A0H2ZQD7 59-285)
# T1 construct: HtrA serine protease of Streptococcus pneumoniae, protease domain alone, residues 59-285; 15N-labeled where it is the observed partner of an NMR titration; also called HtrA PD; PD WT; source: E. coli BL21(DE3), purified (Ni column, preparative sizing column)
# T1 sequence: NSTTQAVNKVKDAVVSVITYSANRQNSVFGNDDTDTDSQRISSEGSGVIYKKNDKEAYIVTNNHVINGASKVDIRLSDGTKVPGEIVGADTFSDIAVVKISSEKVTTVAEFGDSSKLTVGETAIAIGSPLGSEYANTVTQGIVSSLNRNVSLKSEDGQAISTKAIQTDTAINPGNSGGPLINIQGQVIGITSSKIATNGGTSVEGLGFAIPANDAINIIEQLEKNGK
# B1: S. pneumoniae HtrA PDZ domain (residues 285-393) (domain or fragment, Streptococcus pneumoniae, UniProt A0A0H2ZQD7 285-393, looked up)
# chain: KVTRPALGIQMVNLSNVSTSDIRRLNIPSNVTSGVIVRSVQSNMPANGHLEKYDVITKVDDKEIASSTDLQSALYNHSIGDTIKITYYRNGKEETTSIKLNKSSGDLES
# notes: HtrA serine protease of Streptococcus pneumoniae, PDZ domain alone, residues 285-393 (the methods print 285-493); cloned downstream of human SUMO1 to give the PDZ with no overhang; source: E. coli BL21(DE3), purified (Ni column, ULP1 cleavage, Ni column, preparative sizing column); not shown: 6xHis, N-terminal, cleaved; hSUMO1, N-terminal, cleaved
# B2: β-casein residues 21-70 (domain or fragment, bovine, UniProt P02666 21-70, looked up)
# chain: LNVPGEIVESLSSSEESITRINKKIEKFQSEEQQQTEDELQDKIHPFAQT
# modifications: ends and bridges not checked
# notes: bovine β-casein, residues 21-70; also called N-terminal segment (21-70); source: recombinantly produced in-house with the hSUMO1 system (as for the HtrA PDZ)
# B3: S. pneumoniae HtrA S234A full ectodomain (residues 59-393) (enzyme)
# chain: NSTTQAVNKVKDAVVSVITYSANRQNSVFGNDDTDTDSQRISSEGSGVIYKKNDKEAYIVTNNHVINGASKVDIRLSDGTKVPGEIVGADTFSDIAVVKISSEKVTTVAEFGDSSKLTVGETAIAIGSPLGSEYANTVTQGIVSSLNRNVSLKSEDGQAISTKAIQTDTAINPGNAGGPLINIQGQVIGITSSKIATNGGTSVEGLGFAIPANDAINIIEQLEKNGKVTRPALGIQMVNLSNVSTSDIRRLNIPSNVTSGVIVRSVQSNMPANGHLEKYDVITKVDDKEIASSTDLQSALYNHSIGDTIKITYYRNGKEETTSIKLNKSSGDLES
# notes: HtrA serine protease of Streptococcus pneumoniae, full ectodomain, residues 59-393, catalytic serine changed to alanine; the mutant's own cloning is not described; also called full HtrA S234A ectodomain; catalytic mutant; source: E. coli, purified (monomer and hexamer separated by size-exclusion chromatography)
# Legend:
# [1] = target: T1, S. pneumoniae HtrA protease domain (PD, …); experiment: NMR titration; 500 μM 15N-labeled PDZ titrated with unlabeled PD (0.5-4 mM); 15N-HSQC at 900 MHz, 35°C; 50 mM sodium phosphate pH 6, 50 mM NaCl; global fit of CSPs, single-site model; conditions: both partners purified
# [2] = target: T1, S. pneumoniae HtrA protease domain (PD, …); experiment: NMR titration; 500 μM 15N-labeled PD titrated with unlabeled PDZ (0.25-4 mM); 15N-HSQC at 900 MHz, 35°C; 50 mM sodium phosphate pH 6, 50 mM NaCl; global fit of CSPs, single-site model; conditions: both partners purified
# [3] = target: B1; experiment: NMR titration; 250 μM 15N-labeled HtrA PDZ titrated with recombinant β-casein fragments (final 400 μM); 15N-HSQC, global fit of CSPs; conditions: both partners purified
# [4] = target: the molecule itself; experiment: SEC; size-exclusion chromatography of HtrA WT, HtrA S234A, β-casein and a mixture of HtrA S234A with excess β-casein
binder,measurement,setting,value
B1,Kd,[1],1000 ± 500 µM
same,Kd,[2],480 ± 43 µM
B2,Kd,[3],215 ± 35 µM
B3,stoichiometry N,[4],6

# Source: paper PMC12745498, “Streptococcus pneumoniae HtrA is a dynamic and monomeric virulence factor capable of forming larger oligomeric complexes” (Protein Science : A Publication of the Protein Society, 2025)
